Laboratory results reported in IntAct's records for PubMed 31515488.

B1: Keratin, type I cytoskeletal 20 (Homo sapiens), P35900 (parent)
chain: MDFSRRSFHRSLSSSLQAPVVSTVGMQRLGTTPSVYGGAGGRGIRISNSRHTVNYGSDLTGGGDLFVGNEKMAMQNLNDRLASYLEKVRTLEQSNSKLEVQIKQWYETNAPRAGRDYSAYYRQIEELRSQIKDAQLQNARCVLQIDNAKLAAEDFRLKYETERGIRLTVEADLQGLNKVFDDLTLHKTDLEIQIEELNKDLALLKKEHQEEVDGLHKHLGNTVNVEVDAAPGLNLGVIMNEMRQKYEVMAQKNLQEAKEQFERQTAVLQQQVTVNTEELKGTEVQLTELRRTSQSLEIELQSHLSMKESLEHTLEETKARYSSQLANLQSLLSSLEAQLMQIRSNMERQNNEYHILLDIKTRLEQEIATYRRLLEGEDVKTTEYQLSTLEERDIKKTRKIKTVVQEVVDGKVVSSEVKEVEENI
B2: Scaffold protein ILK (Homo sapiens), Q13418 (parent)
chain: MDDIFTQCREGNAVAVRLWLDNTENDLNQGDDHGFSPLHWACREGRSAVVEMLIMRGARINVMNRGDDTPLHLAASHGHRDIVQKLLQYKADINAVNEHGNVPLHYACFWGQDQVAEDLVANGALVSICNKYGEMPVDKAKAPLRELLRERAEKMGQNLNRIPYKDTFWKGTTRTRPRNGTLNKHSGIDFKQLNFLTKLNENHSGELWKGRWQGNDIVVKVLKVRDWSTRKSRDFNEECPRLRIFSHPNVLPVLGACQSPPAPHPTLITHWMPYGSLYNVLHEGTNFVVDQSQAVKFALDMARGMAFLHTLEPLIPRHALNSRSVMIDEDMTARISMADVKFSFQCPGRMYAPAWVAPEALQKKPEDTNRRSADMWSFAVLLWELVTREVPFADLSNMEIGMKVALEGLRPTIPPGISPHVCKLMKICMNEDPAKRPKFDMIVPILEKMQDK
partner: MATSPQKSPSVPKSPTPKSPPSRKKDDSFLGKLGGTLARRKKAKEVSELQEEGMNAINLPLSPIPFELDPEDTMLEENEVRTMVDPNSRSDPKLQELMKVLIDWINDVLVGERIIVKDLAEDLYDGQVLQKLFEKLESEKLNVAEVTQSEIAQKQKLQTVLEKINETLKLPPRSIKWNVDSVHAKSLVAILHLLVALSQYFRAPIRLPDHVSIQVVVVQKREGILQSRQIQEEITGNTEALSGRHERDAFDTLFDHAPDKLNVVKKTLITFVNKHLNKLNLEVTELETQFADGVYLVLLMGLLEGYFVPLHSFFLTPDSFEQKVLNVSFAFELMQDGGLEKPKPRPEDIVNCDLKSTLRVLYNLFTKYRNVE
B3: Maspardin (Homo sapiens), Q9NZD8 (parent)
chain: MGEIKVSPDYNWFRGTVPLKKIIVDDDDSKIWSLYDAGPRSIRCPLIFLPPVSGTADVFFRQILALTGWGYRVIALQYPVYWDHLEFCDGFRKLLDHLQLDKVHLFGASLGGFLAQKFAEYTHKSPRVHSLILCNSFSDTSIFNQTWTANSFWLMPAFMLKKIVLGNFSSGPVDPMMADAIDFMVDRLESLGQSELASRLTLNCQNSYVEPHKIRDIPVTIMDVFDQSALSTEAKEEMYKLYPNARRAHLKTGGNFPYLCRSAEVNLYVQIHLLQFHGTKYAAIDPSMVSAEELEVQKGSLGISQEEQ

Variants of: B1
Details: with KRT15, P19012
Chain of KRT15, P19012 (P19012 whole entry): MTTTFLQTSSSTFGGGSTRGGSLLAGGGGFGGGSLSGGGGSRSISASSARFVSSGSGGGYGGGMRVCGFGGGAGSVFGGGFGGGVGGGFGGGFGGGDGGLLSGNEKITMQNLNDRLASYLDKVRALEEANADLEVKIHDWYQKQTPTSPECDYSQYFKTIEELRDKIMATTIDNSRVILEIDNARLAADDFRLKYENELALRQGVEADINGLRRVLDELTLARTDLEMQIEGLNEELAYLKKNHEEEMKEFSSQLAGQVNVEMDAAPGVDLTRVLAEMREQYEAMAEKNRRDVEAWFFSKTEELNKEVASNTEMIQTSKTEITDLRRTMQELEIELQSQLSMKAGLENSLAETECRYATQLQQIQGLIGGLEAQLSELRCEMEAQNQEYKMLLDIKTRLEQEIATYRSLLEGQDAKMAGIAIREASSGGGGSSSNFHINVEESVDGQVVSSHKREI

effect of a mutation on the interaction | Variant
with no effect | S309Y
with no effect | S129N

Variants of: B1
Details: with vime_human VIM

effect of a mutation on the interaction | Variant
with no effect | S309Y
with no effect | S129N

Variants of: B2
Details: with parva_human PARVA

Variant | effect of a mutation on the interaction
L314H | with no effect
R349H | disrupting interaction strength
Y278H | disrupting interaction strength
Q362H | with no effect
K223N | disrupting interaction strength
A262V | with no effect

Now from value to variant:

effect of a mutation on the interaction | Variant
with no effect | R46H
with no effect | L311I
with no effect | V340G
with no effect | M425I

Variants of: B3
Details: with cryaa_human CRYAA

effect of a mutation on the interaction | Variant
disrupting interaction strength | H272D
disrupting interaction strength | A180T

Variants of: B3
Details: with traf2_human TRAF2, Q12933
Chain of traf2_human TRAF2, Q12933 (Q12933 whole entry): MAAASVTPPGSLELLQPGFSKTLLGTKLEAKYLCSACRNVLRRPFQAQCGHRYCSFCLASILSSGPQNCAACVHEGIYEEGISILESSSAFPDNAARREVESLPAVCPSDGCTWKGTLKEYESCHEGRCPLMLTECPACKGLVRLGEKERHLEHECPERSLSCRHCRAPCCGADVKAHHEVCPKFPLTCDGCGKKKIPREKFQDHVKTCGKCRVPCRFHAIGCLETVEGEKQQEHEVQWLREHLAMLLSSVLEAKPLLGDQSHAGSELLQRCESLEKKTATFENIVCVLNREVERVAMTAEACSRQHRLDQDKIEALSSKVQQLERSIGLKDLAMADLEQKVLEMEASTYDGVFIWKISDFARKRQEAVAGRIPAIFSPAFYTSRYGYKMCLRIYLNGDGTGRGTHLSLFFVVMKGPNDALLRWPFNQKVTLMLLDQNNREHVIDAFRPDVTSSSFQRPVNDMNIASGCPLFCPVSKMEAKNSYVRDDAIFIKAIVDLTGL

effect of a mutation on the interaction | Variant
disrupting interaction strength | H272D
with no effect | A180T

Variants of: B3
Details: with htf4_human TCF12, Q99081
Chain of htf4_human TCF12, Q99081 (Q99081 whole entry): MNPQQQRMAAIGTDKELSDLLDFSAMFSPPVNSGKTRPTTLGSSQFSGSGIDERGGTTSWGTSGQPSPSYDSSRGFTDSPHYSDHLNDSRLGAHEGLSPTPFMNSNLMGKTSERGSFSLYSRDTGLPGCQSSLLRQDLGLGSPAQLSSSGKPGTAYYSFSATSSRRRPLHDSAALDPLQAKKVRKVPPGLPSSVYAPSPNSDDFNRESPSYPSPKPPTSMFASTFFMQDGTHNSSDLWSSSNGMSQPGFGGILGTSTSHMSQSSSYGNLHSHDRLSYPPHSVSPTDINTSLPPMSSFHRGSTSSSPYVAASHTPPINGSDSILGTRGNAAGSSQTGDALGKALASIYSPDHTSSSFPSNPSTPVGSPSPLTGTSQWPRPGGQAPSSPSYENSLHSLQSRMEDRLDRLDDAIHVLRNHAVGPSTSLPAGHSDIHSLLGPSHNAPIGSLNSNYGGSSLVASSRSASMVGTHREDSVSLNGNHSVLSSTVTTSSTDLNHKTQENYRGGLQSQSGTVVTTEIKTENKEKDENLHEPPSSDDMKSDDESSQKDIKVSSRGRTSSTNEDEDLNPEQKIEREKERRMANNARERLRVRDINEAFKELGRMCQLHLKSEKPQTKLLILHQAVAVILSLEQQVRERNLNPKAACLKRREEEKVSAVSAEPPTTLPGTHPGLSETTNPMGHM

effect of a mutation on the interaction | Variant
disrupting interaction strength | H272D
with no effect | A180T

Variants of: B3
Details: with rtn4_human RTN4, Q9NQC3
Chain of rtn4_human RTN4, Q9NQC3 (Q9NQC3 whole entry): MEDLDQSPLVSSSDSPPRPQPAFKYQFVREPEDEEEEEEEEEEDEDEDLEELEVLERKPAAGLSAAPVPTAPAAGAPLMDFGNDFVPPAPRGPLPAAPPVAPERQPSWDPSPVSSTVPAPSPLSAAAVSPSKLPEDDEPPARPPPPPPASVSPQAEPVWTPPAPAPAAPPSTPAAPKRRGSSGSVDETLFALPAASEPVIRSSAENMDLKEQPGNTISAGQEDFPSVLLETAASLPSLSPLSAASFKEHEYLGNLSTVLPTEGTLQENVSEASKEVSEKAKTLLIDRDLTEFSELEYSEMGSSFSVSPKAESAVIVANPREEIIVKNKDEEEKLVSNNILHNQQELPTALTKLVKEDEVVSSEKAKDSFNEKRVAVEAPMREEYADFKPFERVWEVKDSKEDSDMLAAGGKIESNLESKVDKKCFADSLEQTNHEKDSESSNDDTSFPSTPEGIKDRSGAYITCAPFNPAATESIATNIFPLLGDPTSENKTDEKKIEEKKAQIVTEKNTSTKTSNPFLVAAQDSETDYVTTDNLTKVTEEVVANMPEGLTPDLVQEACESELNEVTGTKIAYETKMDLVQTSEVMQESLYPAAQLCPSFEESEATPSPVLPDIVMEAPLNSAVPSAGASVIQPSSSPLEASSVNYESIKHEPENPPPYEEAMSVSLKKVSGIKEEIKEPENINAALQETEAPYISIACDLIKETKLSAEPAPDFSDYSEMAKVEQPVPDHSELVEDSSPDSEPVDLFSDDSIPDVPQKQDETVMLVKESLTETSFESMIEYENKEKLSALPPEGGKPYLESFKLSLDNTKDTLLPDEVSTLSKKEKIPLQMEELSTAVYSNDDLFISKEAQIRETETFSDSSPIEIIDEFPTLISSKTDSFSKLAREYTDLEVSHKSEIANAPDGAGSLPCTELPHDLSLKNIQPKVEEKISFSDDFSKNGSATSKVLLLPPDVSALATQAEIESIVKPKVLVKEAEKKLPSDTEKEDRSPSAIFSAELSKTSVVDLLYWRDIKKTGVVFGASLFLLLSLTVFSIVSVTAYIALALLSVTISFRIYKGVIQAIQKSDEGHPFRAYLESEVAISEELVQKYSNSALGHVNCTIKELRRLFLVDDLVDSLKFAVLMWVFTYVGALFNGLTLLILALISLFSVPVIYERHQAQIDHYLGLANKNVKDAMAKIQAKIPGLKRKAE

effect of a mutation on the interaction | Variant
with no effect | A180T

Variants of: B3
Details: with reep6_human REEP6, Q96HR9
Chain of reep6_human REEP6, Q96HR9 (Q96HR9 whole entry): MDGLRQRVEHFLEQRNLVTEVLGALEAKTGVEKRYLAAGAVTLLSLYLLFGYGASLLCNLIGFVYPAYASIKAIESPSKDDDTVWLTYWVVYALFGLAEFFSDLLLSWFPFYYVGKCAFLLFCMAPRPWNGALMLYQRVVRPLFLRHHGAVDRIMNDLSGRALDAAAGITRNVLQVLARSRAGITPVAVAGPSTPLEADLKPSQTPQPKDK

effect of a mutation on the interaction | Variant
with no effect | A180T

Variants of: B3
Details: with spre2_human SPRED2, Q7Z698
Chain of spre2_human SPRED2, Q7Z698 (Q7Z698 whole entry): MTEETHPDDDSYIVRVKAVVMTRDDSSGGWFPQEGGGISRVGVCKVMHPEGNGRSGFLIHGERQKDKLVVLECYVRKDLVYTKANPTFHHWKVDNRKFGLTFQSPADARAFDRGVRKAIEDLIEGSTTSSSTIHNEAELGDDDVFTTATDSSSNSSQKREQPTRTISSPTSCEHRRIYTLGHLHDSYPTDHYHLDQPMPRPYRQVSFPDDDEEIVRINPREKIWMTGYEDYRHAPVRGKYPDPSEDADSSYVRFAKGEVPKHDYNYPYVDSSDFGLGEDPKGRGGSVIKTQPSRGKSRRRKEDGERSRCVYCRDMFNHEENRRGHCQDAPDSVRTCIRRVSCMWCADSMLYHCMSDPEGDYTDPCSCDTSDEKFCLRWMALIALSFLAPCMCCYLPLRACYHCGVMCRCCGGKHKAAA

effect of a mutation on the interaction | Variant
with no effect | A180T

Variants of: B3
Details: with atrap_human AGTRAP

effect of a mutation on the interaction | Variant
with no effect | A180T

Variants of: B3
Details: with akir2_human AKIRIN2, Q53H80
Chain of akir2_human AKIRIN2, Q53H80 (Q53H80 whole entry): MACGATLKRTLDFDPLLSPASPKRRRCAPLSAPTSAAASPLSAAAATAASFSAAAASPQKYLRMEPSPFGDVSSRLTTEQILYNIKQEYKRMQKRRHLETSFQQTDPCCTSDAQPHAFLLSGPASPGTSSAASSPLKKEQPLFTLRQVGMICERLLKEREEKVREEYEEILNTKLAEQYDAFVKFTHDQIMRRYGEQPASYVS

effect of a mutation on the interaction | Variant
with no effect | A180T
